From patent US20240262894A1 (INSTITUTE OF MICROBIOLOGY CHINESE ACADEMY OF SCIENCES, published 2024)

B1: Palivizumab (antibody, V domains shown)
VH: QVTLRESGPALVKPTQTLTLTCTFSGFSLSTSGMSVGWIRQPPGKALEWLADIWWDDKKDYNPSLKSRLTISKDTSKNQVVLKVTNMDPADTATYYCARSMITNWYFDVWGAGTTVTVSS
VL: DIQMTQSPSTLSASVGDRVTITCKCQLSVGYMHWYQQKPGKAPKLLIYDTSKLASGVPSRFSGSGSGTEFTLTISSLQPDDFATYYCFQGSGYPFTFGGGTKLEIK
B2: RV10 Fab (Fab, V domains shown)
VH: QVQLVQSGAEVKKPGASVKVSCKASGYTFTTYDFHWVRQAPGQGLEWIGWLNPDNGNTKHSQKFQGRVTFTRDTSASTAFMELSSLRSEDTAVYYCTRAPWWWYFDYWGQGTLVTVSS
VL: NFMLTQPHSVSESPGKTVTISCTRSSGSIASNYVQWCQQRPGSSPTTVIYEDNQRPSGVPDRFSGSIDSSSNSASLTISGLRTEDEADYYCQSYDTSNAVFGGGTKLTVLG
notes: Fab made by enzyme digestion of the human IgG1/lambda antibody; also called Fab of RV10 antibody; not shown: limits not st
B3: RV8 antibody (human IgG1) (antibody, V domains shown)
VH: QVQLVQSGGGVVQPGRSLRLSCAASGFTFSSYAMHWVRQAPGKGLEWMAVISYDGSNTYYADSVKGRFTISRDNSKNTLYLQMNSLRAEDTAMFYCARDYCSRGTCYHDYWGQGTLVTVSS
VL: DIVLTQSPSSLSASVGDRVTITCRASQDIRNDLSWYQQKPGKAPKLLIYAASSLQSGVPSRFSGSGSGTDFTLTISSLQPEDFATYSCLQDYNYPQTFGQGTKVEIKR
B4: RV8 Fab (Fab, V domains shown)
VH: B3 VH
VL: B3 VL
notes: Fab made by enzyme digestion of the human IgG1/kappa antibody; also called Fab of RV8 antibody; not shown: limits not st
B5: RV7 Fab (Fab, V domains shown)
VH: QVQLQESGPGLVKPSETLSLTCTVSGGSISSYYLSWIRQPPGKGLEWIGYIYHTGSTNYNPSLKSRVTISVHSSKNQFSLKLTSVTAADTAVYYCARHMRIVTTIDYWGQGTLVTVSS
VL: DIVMTQSPSSLSASVGDRVTLTCRASQGISSYLAWYQQKPGKVPKLLIYAASTLQSGVPSRFSGSGSGTDFTLTISSLQPEDVATYYCQKYNSAPWTFGQGTKVEIKR
notes: Fab made by enzyme digestion (immobilised enzyme beads, Thermo 20341) of the human IgG1/kappa antibody; also called Fab of RV7 antibody; not shown: limits not st
B6: RV11 antibody (human IgG1) (antibody, V domains shown)
VH: QVQLVQSGGGVVQPGRSLRLSCAASGFSFTNYGMHWVRQAPGKGLEWVAVISYDDGSDKYYADSVKGRFTISRDNSKNTLYLQMNSLRAEDTAVYYCVRDPTGDYGDFPEQDGYYYYYGMDVWGQGTTVTVSS
VL: QAVLTQPPSASGTPGQRVTISCSGSSLNIGSNYVYWYQQLPGTAPKFLIYKNNQRPSGVPDRFSGSKSGTSASLAISGLRSEDEADYYCAAWDDSLSGVVFGGGTKLTVLG

Experiments:
[1] = target: F protein of RSV A-type A2 strain (on virus) (respiratory syncytial virus A-type A2 …, UniProt P03420 26-574); experiment: cell-based or functional assay
[2] = target: F protein of RSV A-type Long strain (on virus) (respiratory syncytial virus A-type Long …, UniProt P12568 26-574); experiment: cell-based or functional assay
[3] = target: T1, pre-fusion F protein DS-Cav1 of RSV A2 strain (respiratory syncytial virus A2 strain); experiment: SPR (Biacore), F protein immobilised on CM5 chip, Fab as analyte
T1 construct: Purified from 293T cells; also called RSV-F (DS-Cav1); RSV pre-fusion F protein

[4] = target: T2, post-fusion F protein (FΔFP) of RSV A2 strain (respiratory syncytial virus A2 strain, UniProt P03420 26-513); experiment: as above
T2 construct: also called RSV-FΔFP; RSV post-fusion F protein

[5] = target: T3, F protein of RSV B-type clinical isolates (on virus) (respiratory syncytial virus B-type …); experiment: cell-based or functional assay
[6] = target: T4, F protein of RSV A-type A2 strain (on virus) (respiratory syncytial virus A-type A2 …, UniProt P03420 26-574); experiment: cell-based or functional assay; remark: listed apart in the source
[7] = target: T3, F protein of RSV B-type clinical …; experiment: cell-based or functional assay; remark: listed apart in the source
[8] = target: T4, F protein of RSV A-type A2 strain (on …); experiment: cell-based or functional assay; remark: listed apart in the source
[9] = target: F protein of RSV A-type Long strain (on virus) (respiratory syncytial virus A-type Long …, UniProt P12568 26-574); experiment: cell-based or functional assay; remark: listed apart in the source

Row | Binder | Kd [3] | Kd [4] | neutralization activity against RSV B-type clinical isolates relative to palivizumab [5] | IC50 (ng/mL), neutralization of RSV A-type A2 strain on Hep2 cells, flow cytometry [6] | IC50 (ng/mL), neutralization of RSV B-type clinical isolates on Hep2 cells, flow cytometry [7] | also measured
1 | B1 |  |  |  |  |  | IC50 (ng/mL), neutralization of RSV A-type A2 strain on Hep2 cells, flow cytometry [1]: 751 ng/mL; IC50 (ng/mL), neutralization of RSV A-type Long strain on Hep2 cells, flow cytometry [2]: 897 ng/mL
2 | B2 | 10.1 nM | 7.1 nM |  |  |  | 
3 | B3 |  |  | 7.7 times | 540 ng/mL | 183 ng/mL | 
4 | B4 | 25.6 nM | 17.5 nM |  |  |  | 
5 | B5 |  |  |  |  |  | binding result [3]: no binding; binding result [4]: no binding
6 | B6 |  |  | ~45 times | 42.3 ng/mL | 31.4 ng/mL | neutralization activity against RSV A2 relative to palivizumab [8]: ~18 times; neutralization activity against RSV Long relative to palivizumab [9]: ~16 times
